# T1: RIG-IΔN (2CARD deletion);RIPLET (Homo sapiens;Homo sapiens, UniProt O95786;Q8IUD6 201-925;1-432, |)
# T1 sequence 1: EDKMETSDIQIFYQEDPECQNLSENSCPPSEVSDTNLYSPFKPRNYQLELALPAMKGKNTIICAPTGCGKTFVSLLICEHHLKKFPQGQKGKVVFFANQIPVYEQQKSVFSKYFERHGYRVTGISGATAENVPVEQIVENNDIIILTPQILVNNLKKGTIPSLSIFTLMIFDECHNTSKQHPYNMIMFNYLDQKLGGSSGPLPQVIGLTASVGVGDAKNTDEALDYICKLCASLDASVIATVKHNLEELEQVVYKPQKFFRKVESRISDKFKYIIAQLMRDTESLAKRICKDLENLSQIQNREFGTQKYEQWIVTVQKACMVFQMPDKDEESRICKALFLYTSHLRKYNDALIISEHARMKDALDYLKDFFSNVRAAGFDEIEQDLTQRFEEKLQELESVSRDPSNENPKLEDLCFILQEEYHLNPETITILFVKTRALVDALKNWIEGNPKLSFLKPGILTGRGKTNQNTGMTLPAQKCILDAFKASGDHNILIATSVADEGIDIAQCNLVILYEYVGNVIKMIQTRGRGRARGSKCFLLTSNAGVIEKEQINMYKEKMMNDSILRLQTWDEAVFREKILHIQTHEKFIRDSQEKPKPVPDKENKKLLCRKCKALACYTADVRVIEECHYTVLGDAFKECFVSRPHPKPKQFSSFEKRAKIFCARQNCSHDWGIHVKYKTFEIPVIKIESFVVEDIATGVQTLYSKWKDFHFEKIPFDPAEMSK
# T1 sequence 2: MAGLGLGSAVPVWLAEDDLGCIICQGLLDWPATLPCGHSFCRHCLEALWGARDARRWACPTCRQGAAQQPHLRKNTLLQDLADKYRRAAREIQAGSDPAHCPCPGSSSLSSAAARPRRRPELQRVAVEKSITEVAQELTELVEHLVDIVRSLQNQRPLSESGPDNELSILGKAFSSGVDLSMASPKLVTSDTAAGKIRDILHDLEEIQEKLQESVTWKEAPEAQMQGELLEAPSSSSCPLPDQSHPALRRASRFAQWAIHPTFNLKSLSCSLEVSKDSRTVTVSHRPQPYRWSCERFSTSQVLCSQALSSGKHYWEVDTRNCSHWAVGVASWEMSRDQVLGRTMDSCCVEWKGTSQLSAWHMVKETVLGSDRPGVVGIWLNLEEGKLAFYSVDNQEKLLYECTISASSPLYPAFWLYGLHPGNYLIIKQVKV
# Target: T1, RIG-IΔN (2CARD deletion);RIPLET
# Test: EMSA
binder,measurement,value
"21 bp dsRNA (dsRNA, 5'ppp) RNA 1: GAGUCACGACGUUGUAAAAAA RNA 2: UUUUUUACAACGUCGUGACUC",binding result,binds

# Reference: paper doi:10.1101/367656
